# From the nanobody polyreactivity screen of Harvey et al. (2022)
# Assay: yeast display, Sf9 membrane polyspecificity reagent, FACS + sequencing; frameworks hold sequencing errors
# Procedure, shortened: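 Synthetic nanobody libraries on Saccharomyces cerevisiae BJ5465 were galactose-induced for 36–48 hours, stained 1 hour at 4 °C with 10% biotinylated, detergent-solubilized Sf9 membrane reagent and enriched on streptavidin microbeads. FACS then separated cells into low and high (top ~1%) gates by anti-HA (expression) and streptavidin (reagent binding) fluorescence. Genes were colony-PCR amplified, MiSeq 2 × 250 sequenced and CDR-length filtered. A clone's polyreactivity label is that of its gate of origin.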
row,Sequence,polyreactivity (PSR sort gate)
1,QVQLVESGGGLVEAGGSLRLSCAASGRIFKYYAMGWYRQAPGKERELVAAISRGGSTYYADSVKGRFTISRDNAKNTVYLQMNSLKPEDTAVYFCAAVNGWRRVLRFDYWGQGTQVTVSS,high polyreactivity
2,QVQLVESGGGLVQAGGSLRLSCAASGRIFDSNAMGWYRQAPGTEREFVAAITYSSGSTYYRNSVKGRFTISRDNAKNTVYLQMNSLKPEDTAVYYCAAVLYWRTLSSRYDYWGQGTQVTVSS,high polyreactivity
3,QVQLVESGGGLVQAGGSLRLSCAASGSIIRQNAMGWYRQAPGKERELVAAISFSGTSTYYADSVKGRFTISRDNAKNTVYLQMNSLKPEDTAVYYCAVDNISYWAVENDYWGQGTQVTVSS,low polyreactivity
4,QVQLEESGGGLVQAGGSLRLSCAASGSICWLYAMGWYRQAPGKERELVAAIDSGDSTKYADSVKGRFTISRDNAKNTVYLQMNSLIPEDTAVYYCNASRRYHVRAPYDYWGQGTQVTVSS,low polyreactivity
5,QVQLVESGVGLVQAGGSLRLSCAASGRNFGTNAIGWYRPAPGKERELVAAISSSGGSTYYADSVKGRFTISRDNAKNTVYLQMNSLKPEDTAVYYCAKGWHRGVGFGYWGQGTEVTVSS,high polyreactivity
6,QVQLVESGGGLVQSGGSLRLSCAASGFTFPNNAMGWYRLAPGKERELVAAITWSGGSTYADSVKGRFTISRDNAKNTVYLQMNSLKPEETAVYFCNTRGTYLSKTLPSAYDYWGQGTQVTVSS,low polyreactivity
7,QVQLVESGGGLVQAGGSLRLSCAASGITFSVYAMGWYRQAPGKERELVAAISGSGGSTYYADSVKGRFTISRDNAKNTVYLQMNSLKPEDTAVYYCAARLAQKYSPTRYNYWGQGTQVTVSS,high polyreactivity
8,QVQLVESGGGLVQAGGSLRLSCAASGLIFAYNTMGWYRQAPGKERELVAGITSSGSTYYADSVKGRFTISRDNAKNTVYLQMNSLKPEDTAVYYCAAEWDDGRSWYWYYLVGFEYWGQGTQVTVSS,high polyreactivity
9,QVQLVESGGGLVQAGGSLRLSCAASGSTFVYNARGWYRQAPGKERELVAAISRRGGSTYYADSVKGRFTISRDNAKNTVYLQMNSLKPEDTAVYYCAADQYRTNSYRYDYWGQGTQVTVSS,low polyreactivity
10,QVQLLESGGGLVQAGGSLRLSCAASGFIFDIYAMGWYRQAPGKERELVASINWSGGDSTSYADSVKGRFTISRDNAKNTVFLQMYSLKPEDTAVYFCNAEYWSYSGGYPDEYDYWGLGTQVTVSS,low polyreactivity
11,QVQLVESGGGLVQAGGSLRLSCAASGLTFQSYAMGRYRQAPVKERELVATISNGSSTYYADSVKGRFTFSRDNAKNTVYLQMNSLKPEDTAVYFCAKDYYYSRNPLYGHDYWGHGTQVTVSS,low polyreactivity
12,QVQLVESGGGLVQAGGTLRLSCAASGFTLSVYAMGWYIQAPGKDRELVAAITRSTGSTYYADSVKGRFTISRDNAKNTVYLQMNSLKPEDTAVYYCNAGHFAHHHGYYRSKYDYWGQGTQVTVSS,low polyreactivity
13,QVQLVESGGGLVQAGGSLRLSCAASGSIFEYYPMGWYRQAPGKERELVAAISWSGGSTYYADSVKGRFSISRDNAKNTVYFQMNSLKPEDTAVYYCAARGYWGQGTQVTVSS,low polyreactivity
14,QVQLVESGGGLVQAGGSLRLSCAASGFIFHLYSLGWYRQAPGKERELVAVISGGGSTYYADSVKGRFTISRDNAKNTVYLQMNSLKPEDTAVYYCNVGRYYRYATGGDYWGQGTQVTVSS,high polyreactivity
15,QVQLVESGGGLVQEGGSLRLSCAASGIIFGPYVMGWYRQAPGKERELVATISRTGDTYYADSVKGRFTISRDNAKNTVYLQMNSVKPEDTAVYYCNTQDHGYGFTMDYWGQGTQVTVSS,low polyreactivity
16,QVQLVQSGGGLVQAGGSLRLRCAASGRIFTPYAMGWNRQAPGQDRELVAAISASGTRTYYADSVKGRFTISRDNAKNTVYLQMKSLQAEDSAVYSCAAYKSGEPSDYWGQGTQVTVSS,high polyreactivity
17,QVQLVESGGGLVQAGGSLRLSCAASGSTINIYAMGWYRQAPGKERELVAAISGRGGSTYYADSVKGRFTISRDNAKNTVYLQMNSLKPEDTAVYYSAASGYKVGSYRARMYYWGQGTQVTVSS,high polyreactivity
18,QVQLVESGGGLVQAGGSLRLSCAASGITFNTYAMGWYRQAPGKERELVAVITWSDGGTYYADSVKGRFTISRDNAKNTVYLQMNSLKPEDTAVYYCAADYYWGYDYWGQGTQVTVSS,low polyreactivity
19,QVQLVESGGGLVQAGGSLRLSCAASGRTFYYYAKGWYRQAPGKERELVARISRCGSTNYADSVKGRFTISRDNAKNTVYLQMISLKPEDSAVYYCAAGWRGGRYRYFAYDYWGQGTQVTVSS,high polyreactivity
20,QVQLVESGGGLVQAGGSLRLSCAASGRIIYRYAMGWYRQAPGKERELVAAIRYSGGRTYYADSVKGRFTISRDNAKNTVYLQMNSLKPEDTAVYYCAADGQWYYARFRGGDYENDYWGQGTQVTVSS,low polyreactivity
21,QVQLVESGGGLVQAGGSLRLSCAASGSTFVRNGMGWYRQAPGKERELVASISGRGGSTYYADSVKGRFTISRDNAKNTVYLQMNSLKPEDTAVYYCAVRYGFYSRYNYWGQGTQVTVSS,high polyreactivity
22,QVQLVESWGGLVQAGGSHRLSCAASGRTFGIYAMGWYRQAPGKERELVATISWRGGSTYYADSVKGRFTISRDNAKNTVYLQMNSLKPEDTAVYYCAAGYYPYWGQGTQVTVSS,low polyreactivity

row,Sequence,polyreactivity (PSR sort gate)
1,QVQLVESGGGLVQAGGSLRLSCAASGFTLYFYAMGWYRQAPGKERELVATITGSGGSTTYADSVKGRFTISRDNAKNTVYLQMNRLKPEDTAVSYCAAVRVVRASRYQTYHWQPGYCYWGQGTQVTVSS,high polyreactivity
2,QVQLVEKGGGLVQAGGSLRLSCAASGSTFRNNAMGRYREAPGKERELVAAIPYSGDSTSYADSVKGRFTISRDNAKNTVYLQMNSLKPEDTAVYYCNAAIDGIYLGSYTAYGYDSWGQGTQVTVSS,low polyreactivity
3,QVQLVESGGGLVQAGGSLRLSCAASGFIFDKNAMGWYRQAPGKERELVAAISSGGGSTDYADAVKGRFTISRDNAKNPDYLHMNSLKPEDTAVYYCARYWDQLQQYVISFGRYGMDYWGQGTQVTVSS,high polyreactivity
4,QVQLVESVGGLVQAGGSLRLSCAASYAMAWYRQAPGKERELVATITRTDRTNYADSVKGRFTISRDNAMNTVYFQMNSLKPEDTAVYDCNKVEWSAPGDSRKYGYWGQGTQVTVSS,low polyreactivity
5,QVQLVESGGGLVQAGGSLRLSCAASGRTIKSNDMGWYRQAPGKERELVSAISRRGGSTYYADSVKGRFTISRDNAKNTVYLQMNSLKPEDTAVYYCAADLTFSYRQSAGRYSTYGYWGQGTQVTVSS,high polyreactivity
6,QVQLVESGGGLVQAGGSLRLSCAASVRISVFNAMGWYRKPPGKESELVAGISNGGSTNYADSVKGRFTISRDNAKNTVYLQMNSLKPEDTAVYYCANDEPKVCRAFDYWGQGTQVTVSS,low polyreactivity
7,QVQLQESGGGLVQAGGSLRLSCAASGYISHADEMGWNRQAPGKEHELVASISNGGSTNYADSVKGRFTISRDNAKNTVYLQMNSLKSEDTGVYYCAAWTGQVDIHYYWGQGTQVPVSS,low polyreactivity
8,QVQLVESGGGLVQAGGSLRLSCGASGSIFPDYAMGWYRQAPGKERELVAAITWSGGSTYYADSVKGRFTISRDNAKNTVNLQMNSLKPEDTAVYYCAAQLDPEWRGYFDQYGYDYWGQGTQVTVST,low polyreactivity
9,QVQLVESGGGLVQAGGSLRLSCAASGGTFDVYTMGWYRQAPGKERELVAAIDNGGSTNYADSVKGRFTISRDNAKNTVYLQMNSLQPEDTAVYYCAADEVYLFWGIAEFIYDYWGQGTQVTVSS,low polyreactivity
10,QVQLVESGGGLVQAGGSLRLSCAASGFIFNGNVMGWYRQAPGKERELVAAITVSGGSTRYADSVKGRFTISRDNAKNTVYLQMNSLKPEDTAVYYCAARTRYLSYGWIHEYYYWGQGTQVTVSS,high polyreactivity
11,QVQLVESGGGLVQAGGSLRLSSAASGFIFGSNAMGWYRQAPGKERELVAAISRSGGSTYYADSVKGRFTISRDNAKNTVYLQMNSLKPEDTAVYYCASYLYKSRYLPEYDYWGQGTQVTVSS,high polyreactivity
12,QVQLVESGGGLVQAGGSLRLSCAASGFTFIRSAMGWYRQAPGKGRELVAAITVSGTRTYYADSVKGRFTISRDNAKNTVYLQMNSLKPEDTAVYYCNARDVYTGYGMGYWGQGTQVTVSS,high polyreactivity
13,QVQIVESGGGLVQAGGSLRLSCAASGIIFPVYVMGWYRQAPGKERELVAAISKRGGSTYYADSVKGRFTISRDNAKNTVYLQMNSLKPEDTAVYYCAADRSRHSFYWEYDYWGQGTQVTVSS,high polyreactivity
14,QVQLVESGGGLVQAGGSLRLSCAASGSIFDKNAMGWYRQAPGKERELVAAISRSGGRTYYADSVKGRFTISRDNAKNTVYLQMNSLKPEDTAVYYCNAVYYYRPYWRQSTLSQYGYWGQGTQVTVSS,high polyreactivity
15,QVQLVESGGGLVQAGGSLRLSCAASGRTFAWYAMGWYRQAPGKERELVAAISNVGSTYYADSVKGRFTISRDNAKNTVYLHMNSLKPEHTAVYYCNADAVSTDGREYWGQGTQVTVSS,low polyreactivity
16,QVQLVESGGGLVQAGGSLRLSCASSGFTFRGYAIGWYRQAPGKERELVAAITGGGSTNYADSVKGRFTISRDNAKNTVYLQMNSLKPEDTAVYYCAADASWALFAWAHYDYWGEGTQVTVSS,low polyreactivity
17,QVQLVESGGGLVQAGGSLRLSCAASGRIFGIYAMGWFRLAPWKERELVARITGGGSTNYADSLKGRFTISRDNAKNTVYFQMTSLKPEDTAVYYCNTKKLPYAEGYWGQGTQVTVSS,low polyreactivity
18,QVQLVESGGGLVHAGGSLRLSCAASGRTFIRYAMGWYIQAPGKERQLVAAISSSGGSTYYADSVKGRFTISRDNAKNTVYLQMNSLKPEDTAVYYCNAYVYYSHEDDYWGQGTQVTVSS,high polyreactivity
19,QVQLVESGGGLVQAGGSLRLSCAASGSIFQFYAMGWYRQAPGKERELVAVITTSGVSTYYADSVKGRFTISRDNAMNTVYLQMNSLKPEDTAVYFCAADDYYLAGDYWGQGTQVTVSS,low polyreactivity
20,QVQLVESGGGLVQAGGSLRLSCAASGSTFSTYAMGWYRQAPGKERELVARITRSDTGTYYADSVKGRFTISRDNAKNTGYLQMNSLKPEDTAVYYCAADGWYDDSGWYYGYDYWGQGTQVTVSS,low polyreactivity
21,QVQLVESGGGLVQAGGSLRLSCAASGRIFWDYAMGWYRKAPGKERELVAVITFSGDSTYYADSVKGRFTISRDNAKNTVYLQMNSLKPEDTAVYYCAAARAIRQFWYVATFEYWGQGTQVTVSS,low polyreactivity
